Columns and labels:
[1] = molecular target: cytoplasmic dynein-1 heavy chain, naturally occurring in Vero cells (African green monkey (endogenous in Vero)); assay: proximity ligation; Vero cells infected with ZIKV MR766 at MOI 1, fixed at 18 h.p.i.; mouse monoclonal anti-E and rabbit polyclonal anti-NTDyn; PLA dots counted in 100 cells
[2] = molecular target: cytoplasmic dynein-1 heavy chain, naturally occurring in Vero cells (African green monkey (endogenous in Vero)); assay: proximity ligation; Vero cells infected with ZIKV MR766 at MOI 1, fixed at 12 and 24 h.p.i.; mouse monoclonal anti-E and rabbit polyclonal anti-NTDyn

In the case of “Zika virus (ZIKV) envelope protein (E), MR766 strain (natural protein)”, the PLA dots per cell (18 h.p.i.) (PLA dots per cell) [1] is reported as > 6, the PLA dots per cell (mean, 18 h.p.i.) (PLA dots per cell) [1] is reported as 2.9 and the PLA dots per cell (12 and 24 h.p.i.) (PLA dots per cell) [2] is reported as < 1.
